The data set has as its target T1, MdAIL5 (Malus domestica (apple)?, UniProt A0A678R5P4 1-555).
T1 sequence: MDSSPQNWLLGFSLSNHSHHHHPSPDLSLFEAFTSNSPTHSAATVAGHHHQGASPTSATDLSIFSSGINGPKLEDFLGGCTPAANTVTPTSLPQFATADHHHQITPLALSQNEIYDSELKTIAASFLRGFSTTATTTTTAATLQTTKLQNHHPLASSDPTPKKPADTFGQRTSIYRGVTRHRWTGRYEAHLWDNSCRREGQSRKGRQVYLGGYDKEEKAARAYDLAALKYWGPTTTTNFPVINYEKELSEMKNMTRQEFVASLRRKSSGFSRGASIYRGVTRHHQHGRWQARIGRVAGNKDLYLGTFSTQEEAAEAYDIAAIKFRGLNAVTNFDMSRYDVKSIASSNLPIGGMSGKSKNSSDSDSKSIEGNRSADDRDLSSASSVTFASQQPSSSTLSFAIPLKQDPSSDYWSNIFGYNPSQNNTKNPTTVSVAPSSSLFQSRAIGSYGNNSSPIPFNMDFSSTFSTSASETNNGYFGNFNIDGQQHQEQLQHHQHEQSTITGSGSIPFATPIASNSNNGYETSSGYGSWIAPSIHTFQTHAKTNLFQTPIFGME
In words: EMSA; LightShift Chemiluminescent EMSA Kit per manufacturer; buffer, salt, pH and temperature not stated. To be noted: protein: recombinant; tags: GST (N-terminal, pGEX-4T-1); cold version unlabeled; blunt. A general note: In EMSA bound probe runs differently from free probe, usually more slowly.

B1: Probe with CACAATTGCCTATG (Table S1: MdARF9pro; text and Fig. 6e: MdHB14 promoter) (dsDNA)
DNA 1: TGGGCTATTACATCCCACAATTGCCTATGAGTGGCCAATTTTTCCT
DNA 2: AGGAAAAATTGGCCACTCATAGGCAATTGTGGGATGTAATAGCCCA
Consider B1, for which the binding result is on record as “binds”.

B2: Probe with CACGCATCCCGAAG (Table S1: MdHB14pro; text and Fig. 6d: MdARF9 promoter) (dsDNA)
DNA 1: CGTTACACCAAACCACACGCATCCCGAAGCGCCGTTCACGTCAA
DNA 2: TTGACGTGAACGGCGCTTCGGGATGCGTGTGGTTTGGTGTAACG
As to B2, the binding result is recorded as “binds”.

(Values after PMC10673654, “MdAIL5 overexpression promotes apple adventitious shoot regeneration by regulating hormone signaling and activating the expression of shoot development-related genes”.)
